From paper PMC7683652 (Nature Communications, 2020)

Biological target: the molecule itself
Test: SEC; size exclusion chromatography of the truncated TDP-43 proteins against molecular weight standards (Supplementary Fig. 3a); conditions not shown

B1: TDP-43 N-terminal region (aa 1-100) (domain or fragment, UniProt Q13148 1-100, looked up)
chain: MSEYIRVTEDENDEPIEIPSEDDGTVLLSTVTAQFPGACGLRYRNPVSQCMRGVRLVEGILHAPDAGWGNLVYVVNYPKDNKRKMDETDASSAVKVKRAV
notes: the methods say aa; 1-101; calculated 12.5 kDa; C-terminal limit is printed as 100 (results, legend) and as 101 (methods); also called N-terminal TDP-43; source: E. coli M15 (pQE30), purified (Ni-NTA)
stoichiometry N: 2
